These results are taken from patent US20140087995A1 (published 2014).

Numbered stars: 1 amine (or outer) side, 2 acyl side, 3 side chain; on linkers, the order of the positions; unused ones are H or OH. Bridge positions count the residues as written; N and C are the ends. Side chains are listed from the residue outwards. Ends that are not written are not given here. * marks the point of attachment. C20 diacid = O=C(O)CCCCCCCCCCCCCCCCCCC(=O)*; γGlu = O=C(O)[C@H](CCC(=O)[*:2])N[*:1]; AEEA = NCCOCCOCC(=O)O

B1: N^ε1-[2-[2-[2-[[(4S)-4-carboxy-4-(19-carboxynonadecanoylamino)butanoyl]amino]ethoxy]ethoxy]acetyl]-[Arg17,Pro21,Pro27,His34]-h-amylin (peptide)
peptide: K([AEEA-γGlu-C20 diacid])CNTATCATQRLANFLRHSSPNFGAIPSSTNVGHNTY-NH2
modifications: disulfide 2-7; N-terminus assumed
SMILES: CC[C@H](C)[C@H](NC(=O)[C@H](C)NC(=O)CNC(=O)[C@H](Cc1ccccc1)NC(=O)[C@H](CC(N)=O)NC(=O)[C@@H]1CCCN1C(=O)[C@H](CO)NC(=O)[C@H](CO)NC(=O)[C@H](Cc1c[nH]cn1)NC(=O)[C@H](CCCNC(=N)N)NC(=O)[C@H](CC(C)C)NC(=O)[C@H](Cc1ccccc1)NC(=O)[C@H](CC(N)=O)NC(=O)[C@H](C)NC(=O)[C@H](CC(C)C)NC(=O)[C@H](CCCNC(=N)N)NC(=O)[C@H](CCC(N)=O)NC(=O)[C@@H](NC(=O)[C@H](C)NC(=O)[C@@H]1CSSC[C@H](NC(=O)[C@@H](N)CCCCNC(=O)COCCOCCNC(=O)CC[C@H](NC(=O)CCCCCCCCCCCCCCCCCCC(=O)O)C(=O)O)C(=O)N[C@@H](CC(N)=O)C(=O)N[C@@H]([C@@H](C)O)C(=O)N[C@@H](C)C(=O)N[C@@H]([C@@H](C)O)C(=O)N1)[C@@H](C)O)C(=O)N1CCC[C@H]1C(=O)N[C@@H](CO)C(=O)N[C@@H](CO)C(=O)N[C@H](C(=O)N[C@@H](CC(N)=O)C(=O)N[C@H](C(=O)NCC(=O)N[C@@H](Cc1c[nH]cn1)C(=O)N[C@@H](CC(N)=O)C(=O)N[C@H](C(=O)N[C@@H](Cc1ccc(O)cc1)C(N)=O)[C@@H](C)O)C(C)C)[C@@H](C)O
notes: Analogue of human amylin; also called compound 76
B2: N^ε1-[2-[2-[2-[[(4S)-4-carboxy-4-(19-carboxynonadecanoylamino)butanoyl]amino]ethoxy]ethoxy]acetyl]-[Arg17,Pro21,Pro27,Pro28,Pro34]-h-amylin (peptide)
peptide: K([AEEA-γGlu-C20 diacid])CNTATCATQRLANFLRHSSPNFGAIPPSTNVGPNTY-NH2
modifications: disulfide 2-7; N-terminus assumed
SMILES: CC[C@H](C)[C@H](NC(=O)[C@H](C)NC(=O)CNC(=O)[C@H](Cc1ccccc1)NC(=O)[C@H](CC(N)=O)NC(=O)[C@@H]1CCCN1C(=O)[C@H](CO)NC(=O)[C@H](CO)NC(=O)[C@H](Cc1c[nH]cn1)NC(=O)[C@H](CCCNC(=N)N)NC(=O)[C@H](CC(C)C)NC(=O)[C@H](Cc1ccccc1)NC(=O)[C@H](CC(N)=O)NC(=O)[C@H](C)NC(=O)[C@H](CC(C)C)NC(=O)[C@H](CCCNC(=N)N)NC(=O)[C@H](CCC(N)=O)NC(=O)[C@@H](NC(=O)[C@H](C)NC(=O)[C@@H]1CSSC[C@H](NC(=O)[C@@H](N)CCCCNC(=O)COCCOCCNC(=O)CC[C@H](NC(=O)CCCCCCCCCCCCCCCCCCC(=O)O)C(=O)O)C(=O)N[C@@H](CC(N)=O)C(=O)N[C@@H]([C@@H](C)O)C(=O)N[C@@H](C)C(=O)N[C@@H]([C@@H](C)O)C(=O)N1)[C@@H](C)O)C(=O)N1CCC[C@H]1C(=O)N1CCC[C@H]1C(=O)N[C@@H](CO)C(=O)N[C@H](C(=O)N[C@@H](CC(N)=O)C(=O)N[C@H](C(=O)NCC(=O)N1CCC[C@H]1C(=O)N[C@@H](CC(N)=O)C(=O)N[C@H](C(=O)N[C@@H](Cc1ccc(O)cc1)C(N)=O)[C@@H](C)O)C(C)C)[C@@H](C)O
notes: Analogue of human amylin; also called compound 55
B3: N^ε1-[2-[2-[2-[[(4S)-4-carboxy-4-(19-carboxynonadecanoylamino)butanoyl]amino]ethoxy]ethoxy]acetyl]-[Arg17,Pro21,Pro27,Pro28,Pro31]-h-amylin (peptide)
peptide: K([AEEA-γGlu-C20 diacid])CNTATCATQRLANFLRHSSPNFGAIPPSTPVGSNTY-NH2
modifications: disulfide 2-7
notes: Analogue of human amylin; also called compound 53
B4: N^ε1-[2-[2-[2-[[(4S)-4-carboxy-4-(19-carboxynonadecanoylamino)butanoyl]amino]ethoxy]ethoxy]acetyl]-[Arg17,Pro21,Pro27,Pro29,Pro31]-h-amylin (peptide)
peptide: K([AEEA-γGlu-C20 diacid])CNTATCATQRLANFLRHSSPNFGAIPSPTPVGSNTY-NH2
modifications: disulfide 2-7; N-terminus assumed
SMILES: CC[C@H](C)[C@H](NC(=O)[C@H](C)NC(=O)CNC(=O)[C@H](Cc1ccccc1)NC(=O)[C@H](CC(N)=O)NC(=O)[C@@H]1CCCN1C(=O)[C@H](CO)NC(=O)[C@H](CO)NC(=O)[C@H](Cc1c[nH]cn1)NC(=O)[C@H](CCCNC(=N)N)NC(=O)[C@H](CC(C)C)NC(=O)[C@H](Cc1ccccc1)NC(=O)[C@H](CC(N)=O)NC(=O)[C@H](C)NC(=O)[C@H](CC(C)C)NC(=O)[C@H](CCCNC(=N)N)NC(=O)[C@H](CCC(N)=O)NC(=O)[C@@H](NC(=O)[C@H](C)NC(=O)[C@@H]1CSSC[C@H](NC(=O)[C@@H](N)CCCCNC(=O)COCCOCCNC(=O)CC[C@H](NC(=O)CCCCCCCCCCCCCCCCCCC(=O)O)C(=O)O)C(=O)N[C@@H](CC(N)=O)C(=O)N[C@@H]([C@@H](C)O)C(=O)N[C@@H](C)C(=O)N[C@@H]([C@@H](C)O)C(=O)N1)[C@@H](C)O)C(=O)N1CCC[C@H]1C(=O)N[C@@H](CO)C(=O)N1CCC[C@H]1C(=O)N[C@H](C(=O)N1CCC[C@H]1C(=O)N[C@H](C(=O)NCC(=O)N[C@@H](CO)C(=O)N[C@@H](CC(N)=O)C(=O)N[C@H](C(=O)N[C@@H](Cc1ccc(O)cc1)C(N)=O)[C@@H](C)O)C(C)C)[C@@H](C)O
notes: Analogue of human amylin; also called compound 54

In one assay the target is T1, human calcitonin receptor (human, UniProt P30988 25-474).
T1 construct: whole, on cells; Used as membranes prepared from a BHK tk'ts 13 cell line stably transfected with the human calcitonin receptor (Assay VII); also called hCTR; hCT
T1 sequence (looked up): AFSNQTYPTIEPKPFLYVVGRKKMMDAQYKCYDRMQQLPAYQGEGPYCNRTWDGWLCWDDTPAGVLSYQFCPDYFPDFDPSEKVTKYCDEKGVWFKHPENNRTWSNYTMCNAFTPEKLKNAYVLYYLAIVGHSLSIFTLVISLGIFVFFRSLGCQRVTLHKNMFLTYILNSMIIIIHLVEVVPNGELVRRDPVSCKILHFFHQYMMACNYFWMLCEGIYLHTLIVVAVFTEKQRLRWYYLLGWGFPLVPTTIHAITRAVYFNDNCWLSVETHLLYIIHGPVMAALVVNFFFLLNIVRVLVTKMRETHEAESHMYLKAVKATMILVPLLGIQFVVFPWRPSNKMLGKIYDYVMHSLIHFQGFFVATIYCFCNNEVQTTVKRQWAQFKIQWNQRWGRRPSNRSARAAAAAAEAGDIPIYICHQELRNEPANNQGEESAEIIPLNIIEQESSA
Kind of assay: IC50 on human CTR divided by IC50 on human amylin receptor (Assays VII/V). As for the experimental part:
The resulting pellet was resuspended, homogenized and centrifuged (20.000 rpm, 15 min) in a buffer containing 20 mM Na-HEPES and 0.1 mM EDTA (pH 7.4, buffer 2). The resulting pellet was resuspended in buffer 2 and protein concentration was measured (BCA protein Assay, Pierce). The homogenate was kept cold during the whole procedure. The membranes were kept at −80° C. until use. The assay was performed in a 384 well Optiplate (PerkinElmer) in a total volume of 40 ul. Membranes were mixed with SPA beads. Final concentration of membranes 35 ng/μL final and SPA beads was 0.05 mg/well. Test-compounds were dissolved in DMSO and further diluted in assay buffer (50 mM Hepes, pH 7.4, 1 mM CaCl2, 5 mM MgCl₂, 0.1% OA and 0.02% Tween20). […] The final mixture was incubated with shaking at 400 rpm for 120 min at 25° C. prior to centrifugation (1500 rpm, 10 min). Samples were analyzed on TopCounter™ (Packard). The IC₅₀ was calculated using (one site binding competition analysis) GraphPad Prism5 as a measure of receptor affinity.
Membranes were prepared in the following way; the cells were rinsed with PBS and incubated with Versene for approximately 5 min before harvesting. The cells were flushed with PBS and the cell-suspension was centrifuged for 5 min at 1000 rpm. Cells were homogenized (Ultrathurrax) in a buffer containing 20 mM Na-HEPES and 10 mM EDTA (pH 7.4) and centrifuged at 20.000 rpm for 15 min. The resulting pellet was resuspended, homogenized and centrifuged (20.000 rpm, 15 min) in a buffer containing 20 mM Na-HEPES and 0.1 mM EDTA (pH 7.4, buffer 2). The resulting pellet was resuspended in buffer 2 and protein concentration was measured (BCA protein Assay, Pierce). The homogenate was kept cold during the whole procedure. The membranes were kept at −80° C. until use. Assay was performed in a 384 well Optiplate (PerkinElmer) in a total volume of 40 ul. Membranes were mixed with SPA beads.
For B1, the “Ratio hCT/hAmylin binding” value was 80.
Same read-out and setting: the figure for B2 is 51.8.
Still for that read-out and setting: the figure for B3 is 104; for B4 it is 146.

In a further assay the target is T2, rat amylin receptor (rat calcitonin receptor + rat RAMP 3) (rat, UniProt P32214 25-516; Q9JJ73 23-147).
T2 construct: whole, on cells; Used as membranes prepared from BHK tk'ts 13 cells transiently transfected with rat calcitonin receptor and rat RAMP 3 (Assay VI); also called rAmylin-R; rat amylin 3(a) receptor
T2 sequence (looked up) 1: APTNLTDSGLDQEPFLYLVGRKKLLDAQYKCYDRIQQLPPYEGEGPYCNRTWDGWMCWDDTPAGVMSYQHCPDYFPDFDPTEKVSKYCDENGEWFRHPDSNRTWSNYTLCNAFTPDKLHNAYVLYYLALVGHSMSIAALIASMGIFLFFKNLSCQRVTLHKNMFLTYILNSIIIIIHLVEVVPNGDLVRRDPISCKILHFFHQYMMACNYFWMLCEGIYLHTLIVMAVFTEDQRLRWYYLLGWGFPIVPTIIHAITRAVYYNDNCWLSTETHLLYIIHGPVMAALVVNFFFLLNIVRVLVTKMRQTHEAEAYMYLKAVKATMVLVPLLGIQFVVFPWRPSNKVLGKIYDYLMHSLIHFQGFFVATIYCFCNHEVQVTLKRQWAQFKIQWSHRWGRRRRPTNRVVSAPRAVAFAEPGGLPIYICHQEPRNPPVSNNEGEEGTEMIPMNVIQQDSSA
T2 sequence (looked up) 2: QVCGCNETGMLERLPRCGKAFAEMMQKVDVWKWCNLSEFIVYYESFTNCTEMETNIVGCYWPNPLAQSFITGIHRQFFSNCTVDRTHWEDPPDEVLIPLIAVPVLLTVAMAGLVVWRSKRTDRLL
Kind of assay: SPA competition with 125I-rat amylin, membranes of BHK cells with rat CTR + rat RAMP3 (Assay VI).
A word on the IC50: it is the concentration needed to halve the response being measured. As for B1, the concentration for half-maximal inhibition (IC50) turned out to be 0.686 nM.
Still for that read-out and setting: the value for B2 was 0.081 nM.
The same measure, in the same setting: the value for B3 was 0.084 nM; that for B4 was 0.049 nM.

A further assay has as its target T3, rat calcitonin receptor (rat, UniProt P32214 25-516).
T3 construct: whole, on cells; Used as membranes prepared from BHK tk'ts 13 cells transiently transfected with the rat calcitonin receptor (Assay VIII); also called rCTR; rat calcitonin (a) receptor
T3 sequence (looked up): T2 sequence (looked up) 1
Kind of assay: IC50 on rat CTR divided by IC50 on rat amylin receptor (Assays VIII/VI).
B1: the “Ratio rCT/rAmylin binding” value amounted to 56.8.
On the same count and under the same terms, the value for B2 was 77.2; that for B3 was 130; that for B4 was 179.

A further assay addresses T3, rat calcitonin receptor. Kind of assay: SPA competition with 125I-calcitonin, membranes of BHK cells with rat CTR (Assay VIII).
As for B1, the 50% inhibitory concentration (IC50) came to 38.9 nM.
The same measure, in the same setting: the figure for B2 is 6.25 nM; for B3 it is 10.9 nM; for B4 it is 8.79 nM.
